{"source": "FireProtDB (doi:10.1006/jmbi.1999.2732)", "proteins": {"B1": {"name": "Annexin A1 wild type, P04083 (protein)", "chain": "MAMVSEFLKQAWFIENEEQEYVQTVKSSKGGPGSAVSPYPTFNPSSDVAALHKAIMVKGVDEATIIDILTKRNNAQRQQIKAAYLQETGKPLDETLKKALTGHLEEVVLALLKTPAQFDADELRAAMKGLGTDEDTLIEILASRTNKEIRDINRVYREELKRDLAKDITSDTSGDFRNALLSLAKGDRSEDFGVNEDLADSDARALYEAGERRKGTDVNVFNTILTTRSYPQLRRVFQKYTKYSKHDMNKVLDLELKGDIEKCLTAIVKCATSKPAFFAEKLHQAMKGVGTRHKALIRIMVSRSEIDMNDIKAFYQKMYGISLCQAILDETKGDYEKILVALCGGN"}}, "conditions": "Homo sapiens, Thermal, DSC, Sodium phosphate 50 mM, reversible: no, whole UniProt chain shown", "data": [{"protein": "B1", "values": [{"measurement": "Tm", "setting": "pH 3.2", "value": 41.1, "unit": "°C"}, {"measurement": "unfolding enthalpy (calorimetric)", "setting": "pH 3.2", "value": 102, "unit": "kcal/mol"}, {"measurement": "unfolding enthalpy (van 't Hoff)", "setting": "pH 3.2", "value": 101, "unit": "kcal/mol"}, {"measurement": "Tm", "setting": "pH 3.4", "value": 48.5, "unit": "°C"}, {"measurement": "unfolding enthalpy (calorimetric)", "setting": "pH 3.4", "value": 139, "unit": "kcal/mol"}, {"measurement": "unfolding enthalpy (van 't Hoff)", "setting": "pH 3.4", "value": 119, "unit": "kcal/mol"}, {"measurement": "Tm", "setting": "pH 3.8", "value": 56.4, "unit": "°C"}, {"measurement": "unfolding enthalpy (calorimetric)", "setting": "pH 3.8", "value": 152, "unit": "kcal/mol"}, {"measurement": "unfolding enthalpy (van 't Hoff)", "setting": "pH 3.8", "value": 142, "unit": "kcal/mol"}, {"measurement": "Tm", "setting": "pH 4.5", "value": 62.3, "unit": "°C"}, {"measurement": "unfolding enthalpy (calorimetric)", "setting": "pH 4.5", "value": 192, "unit": "kcal/mol"}, {"measurement": "unfolding enthalpy (van 't Hoff)", "setting": "pH 4.5", "value": 200, "unit": "kcal/mol"}, {"measurement": "Tm", "setting": "pH 5", "value": 62.7, "unit": "°C"}, {"measurement": "unfolding enthalpy (calorimetric)", "setting": "pH 5", "value": 203, "unit": "kcal/mol"}, {"measurement": "unfolding enthalpy (van 't Hoff)", "setting": "pH 5", "value": 206, "unit": "kcal/mol"}, {"measurement": "Tm", "setting": "pH 6", "value": 61.8, "unit": "°C"}, {"measurement": "unfolding enthalpy (calorimetric)", "setting": "pH 6", "value": 197, "unit": "kcal/mol"}, {"measurement": "unfolding enthalpy (van 't Hoff)", "setting": "pH 6", "value": 224, "unit": "kcal/mol"}, {"measurement": "Tm", "setting": "pH 7", "value": 59.9, "unit": "°C"}, {"measurement": "unfolding enthalpy (calorimetric)", "setting": "pH 7", "value": 200, "unit": "kcal/mol"}, {"measurement": "unfolding enthalpy (van 't Hoff)", "setting": "pH 7", "value": 220, "unit": "kcal/mol"}, {"measurement": "Tm", "setting": "pH 8", "value": 58.5, "unit": "°C"}, {"measurement": "unfolding enthalpy (calorimetric)", "setting": "pH 8", "value": 197, "unit": "kcal/mol"}, {"measurement": "unfolding enthalpy (van 't Hoff)", "setting": "pH 8", "value": 215, "unit": "kcal/mol"}]}]}
